{"source": "paper PMC3328447", "about": "“DNA Aptamers against the Lup an 1 Food Allergen”", "molecules": {"B1": {"name": "Sequence 2 (S2) (structured_DNA)", "DNA": "AGCTGACACAGCAGGTTGGTGGGGGTGGCTCACATCATGGTAGAATGACTGAACAGCGTTGATTAAAAGGCACGAGTCGAGCAATCTCGAAAT"}, "B2": {"name": "Sequence 40 (S40) (structured_DNA)", "DNA": "AGCTGACACAGCAGGTTGGTGGGGGTGGCTTCCAGTTGGGTTGACAATACGTAGGGACACGAAGTCCAACCACGAGTCGAGCAATCTCGAAAT"}}, "key": {"[1]": {"system": "beta-conglutin (Lup an 1) (lupin)", "assay": "SPR", "details": "10 mM phosphate, 138 mM NaCl, 2.7 mM KCl, 1.5 mM MgCl2, pH 7.4; ELONA at 21 C, SPR temperature not stated (Biacore 3000, CM5)"}, "[2]": {"system": "beta-conglutin (Lup an 1) (lupin)", "assay": "competition", "details": "10 mM phosphate, 138 mM NaCl, 2.7 mM KCl, 1.5 mM MgCl2, pH 7.4; ELONA at 21 C, SPR temperature not stated (Biacore 3000, CM5)"}, "gamma-conglutin": {"target": "T1, gamma-conglutin (lupin, UniProt Q9FSH9;Q9FSH9 34-300;301-452)", "T1 sequence 1": "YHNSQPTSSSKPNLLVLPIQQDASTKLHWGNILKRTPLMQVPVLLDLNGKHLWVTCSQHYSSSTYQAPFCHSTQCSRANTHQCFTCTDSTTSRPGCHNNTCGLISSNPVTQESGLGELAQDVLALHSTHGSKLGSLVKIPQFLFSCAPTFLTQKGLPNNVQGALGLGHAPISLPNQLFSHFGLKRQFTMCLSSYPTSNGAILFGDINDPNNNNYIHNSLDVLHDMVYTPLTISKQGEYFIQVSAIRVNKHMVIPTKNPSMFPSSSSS", "T1 sequence 2": "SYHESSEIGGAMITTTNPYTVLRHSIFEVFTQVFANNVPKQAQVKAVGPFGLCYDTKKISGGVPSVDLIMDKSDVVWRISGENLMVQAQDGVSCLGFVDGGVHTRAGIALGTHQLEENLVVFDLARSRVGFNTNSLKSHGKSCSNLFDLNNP", "assay": "SPR; 10 uM DNA, 1.5 mM Mg2+; signal negligible; 10 mM phosphate, 138 mM NaCl, 2.7 mM KCl, 1.5 mM MgCl2, pH 7.4; ELONA at 21 C, SPR temperature not stated (Biacore 3000, CM5)", "details": "protein: native, tags: none, label: none, single strand, predicted stem-loops and G-quadruplex (m-fold, QGRS)"}}, "data": [{"molecule": "AGCTGACACAGCAGGTTGGTGGGGGTGGCTTCCAGTTGGGTTGACAATACGTAGGGACACGAAGTCCAACCACGAGTCGAGCAATCTCGAAAT [Sequence 40 (S40)]", "values": [{"measurement": "Kd", "setting": "[1]", "result": 360, "unit": "nM"}, {"measurement": "IC50", "setting": "[2]", "result": 393, "unit": "nM"}]}, {"molecule": "AGCTGACACAGCAGGTTGGTGGGGGTGGCTCACATCATGGTAGAATGACTGAACAGCGTTGATTAAAAGGCACGAGTCGAGCAATCTCGAAAT [Sequence 2 (S2)]", "values": [{"measurement": "Kd", "setting": "[1]", "result": 515, "unit": "nM"}]}, {"molecule": "B1", "values": [{"measurement": "binding result", "setting": "gamma-conglutin", "result": "no binding"}]}, {"molecule": "B2", "values": [{"measurement": "binding result", "setting": "gamma-conglutin; biotinylated probe S4 hybridised to 3' end for ELONA detection", "result": "no binding"}]}]}
